Measured values taken from patent US20250388640A1.

Target: hIL-12 receptor signaling complex (hIL-12Rβ1 and hIL-12Rβ2) (human) (UniProt P42701)
Test: cell-based or functional assay

hIL-12 receptor signaling complex (hIL-12Rβ1 and hIL-12Rβ2) (human), sequence (Q99665 24-862, chain 2 of 2, other chains not shown): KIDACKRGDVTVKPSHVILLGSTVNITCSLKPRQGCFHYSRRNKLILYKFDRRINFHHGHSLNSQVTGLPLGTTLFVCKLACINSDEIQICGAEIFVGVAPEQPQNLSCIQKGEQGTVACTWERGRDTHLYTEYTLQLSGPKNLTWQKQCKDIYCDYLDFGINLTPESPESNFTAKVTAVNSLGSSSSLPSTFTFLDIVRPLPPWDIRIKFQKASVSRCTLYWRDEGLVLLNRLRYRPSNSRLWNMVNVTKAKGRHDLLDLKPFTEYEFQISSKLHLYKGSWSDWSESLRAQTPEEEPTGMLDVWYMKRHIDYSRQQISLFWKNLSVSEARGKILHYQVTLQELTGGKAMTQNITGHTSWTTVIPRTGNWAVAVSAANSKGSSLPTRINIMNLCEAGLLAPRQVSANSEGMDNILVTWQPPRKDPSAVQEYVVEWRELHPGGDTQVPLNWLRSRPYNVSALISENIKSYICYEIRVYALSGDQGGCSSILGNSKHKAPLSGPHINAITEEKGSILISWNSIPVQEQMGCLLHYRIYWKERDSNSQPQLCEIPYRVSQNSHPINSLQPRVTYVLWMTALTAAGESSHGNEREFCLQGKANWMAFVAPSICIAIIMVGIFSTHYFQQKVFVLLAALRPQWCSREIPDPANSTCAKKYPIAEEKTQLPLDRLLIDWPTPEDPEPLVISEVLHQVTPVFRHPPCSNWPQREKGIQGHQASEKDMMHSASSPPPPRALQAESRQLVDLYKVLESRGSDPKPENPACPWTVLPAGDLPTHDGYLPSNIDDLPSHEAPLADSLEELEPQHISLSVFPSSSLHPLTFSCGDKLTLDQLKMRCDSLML

| pSTAT4 [%+] EC50, CD8+ T Cells [nM] | pSTAT4 [%+] EC50, CD56hi NK Cells [nM] | pSTAT4 [%+] Emax, CD8+ T Cells [%+] | pSTAT4 [%+] Emax, CD56hi NK Cells [%+] | pSTAT4 [gMFI] EC50, CD8+ T Cells [nM] | pSTAT4 [gMFI] EC50, CD56hi NK Cells [nM] | pSTAT4 [gMFI] Emax, CD8+ T Cells [gMFI] | pSTAT4 [gMFI] Emax, CD56hi NK Cells [gMFI] | Substance |
| --- | --- | --- | --- | --- | --- | --- | --- | --- |
| 0.86 | 1.4 | 80.5 | 86.1 | 3.84 | 6.29 | 95900 | 26200 | human IL12 mutein, hIL-12p40 E81A, F82S with hIL-12p35-8X His (from UniProt P29460 23-328; P29459 23-219) (ligand) |
| 1.86 | 2.27 | 75.9 | 78.2 | 6.65 | 9.12 | 80100 | 21600 | human IL12 mutein of the F82X panel printed as E81A/F82F/K106K in row r9 of Tables 10 and 11 (label printed a second time in r19 with other values) (ligand) |
